# According to PMC7367873, “Dissecting the sequence determinants for dephosphorylation by the catalytic subunits of phosphatases PP1 and PP2A” (Nature Communications, 2020):
# Tests used:
# [1] = test system: GFP-14-3-3β and its binding proteins; assay: GFP-14-3-3β co-IP with LC-MS/MS label-free quantification, untreated versus PP1c-treated; set-up: species or system human; details: 3 replicates each
# GFP-14-3-3β = GFP-14-3-3β co-IP with LC-MS/MS, untreated GFP-14-3-3β versus GFP control (14-3-3 interactome); format: binding, human; details: 3 replicates each
# [2] = PP1 vs untreated, LFQ intensities
# [3] = untreated vs GFP, LFQ intensities
Molecule,"Difference (log2), PP1 vs untreated [1, 2]","Difference (log2), PP1 vs untreated ([1]; log2 difference, pairwise comparison PP1 vs untreated, label-free quantification)","Difference (log2), untreated vs GFP (GFP-14-3-3β; [3])","Difference (log2), untreated vs GFP (GFP-14-3-3β; log2 difference, pairwise comparison untreated vs GFP, label-free quantification)"
"BSG (protein, UniProt P35613 22-385, looked up) Basigin: AAGFVQAPLSQQRWVGGSVELHCEAVGSPVPEIQWWFEGQGPNDTCSQLWDGARLDRVHIHATYHQHAASTISIDTLVEEDTGTYECRASNDPDRNHLTRAPRVKWVRAQAVVLVLEPGTVFTTVEDLGSKILLTCSLNDSATEVTGHRWLKGGVVLKEDALPGQKTEFKVDSDDQWGEYSCVFLPEPMGTANIQLHGPPRVKAVKSSEHINEGETAMLVCKSESVPPVTDWAWYKITDSEDKALMNGSESRFFVSSSQGRSELHIENLNMEADPGQYRCNGTSSKGSDQAIITLRVRSHLAALWPFLGIVAEVLVLVTIIFIYEKRRKPEDVLDDDDAGSAPLKSSGQHQNDKGKNVRQRNSS",0.3522 log2,,0.07198 log2,
"FLOT1 (protein, UniProt O75955 1-427, looked up) Flotillin-1: MFFTCGPNEAMVVSGFCRSPPVMVAGGRVFVLPCIQQIQRISLNTLTLNVKSEKVYTRHGVPISVTGIAQVKIQGQNKEMLAAACQMFLGKTEAEIAHIALETLEGHQRAIMAHMTVEEIYKDRQKFSEQVFKVASSDLVNMGISVVSYTLKDIHDDQDYLHSLGKARTAQVQKDARIGEAEAKRDAGIREAKAKQEKVSAQYLSEIEMAKAQRDYELKKAAYDIEVNTRRAQADLAYQLQVAKTKQQIEEQRVQVQVVERAQQVAVQEQEIARREKELEARVRKPAEAERYKLERLAEAEKSQLIMQAEAEAASVRMRGEAEAFAIGARARAEAEQMAKKAEAFQLYQEAAQLDMLLEKLPQVAEEISGPLTSANKITLVSSGSGTMGAAKVTGEVLDILTRLPESVERLTGVSISQVNHKPLRTA",0.376 log2,,-0.5076 log2,
"HLTF (protein, UniProt Q14527 1-1009, looked up) Helicase-like transcription …: MSWMFKRDPVWKYLQTVQYGVHGNFPRLSYPTFFPRFEFQDVIPPDDFLTSDEEVDSVLFGSLRGHVVGLRYYTGVVNNNEMVALQRDPNNPYDKNAIKVNNVNGNQVGHLKKELAGALAYIMDNKLAQIEGVVPFGANNAFTMPLHMTFWGKEENRKAVSDQLKKHGFKLGPAPKTLGFNLESGWGSGRAGPSYSMPVHAAVQMTTEQLKTEFDKLFEDLKEDDKTHEMEPAEAIETPLLPHQKQALAWMVSRENSKELPPFWEQRNDLYYNTITNFSEKDRPENVHGGILADDMGLGKTLTAIAVILTNFHDGRPLPIERVKKNLLKKEYNVNDDSMKLGGNNTSEKADGLSKDASRCSEQPSISDIKEKSKFRMSELSSSRPKRRKTAVQYIESSDSEEIETSELPQKMKGKLKNVQSETKGRAKAGSSKVIEDVAFACALTSSVPTTKKKMLKKGACAVEGSKKTDVEERPRTTLIICPLSVLSNWIDQFGQHIKSDVHLNFYVYYGPDRIREPALLSKQDIVLTTYNILTHDYGTKGDSPLHSIRWLRVILDEGHAIRNPNAQQTKAVLDLESERRWVLTGTPIQNSLKDLWSLLSFLKLKPFIDREWWHRTIQRPVTMGDEGGLRRLQSLIKNITLRRTKTSKIKGKPVLELPERKVFIQHITLSDEERKIYQSVKNEGRATIGRYFNEGTVLAHYADVLGLLLRLRQICCHTYLLTNAVSSNGPSGNDTPEELRKKLIRKMKLILSSGSDEECAICLDSLTVPVITHCAHVFCKPCICQVIQNEQPHAKCPLCRNDIHEDNLLECPPEELARDSEKKSDMEWTSSSKINALMHALTDLRKKNPNIKSLVVSQFTTFLSLIEIPLKASGFVFTRLDGSMAQKKRVESIQCFQNTEAGSPTIMLLSLKAGGVGLNLSAASRVFLMDPAWNPAAEDQCFDRCHRLGQKQEVIITKFIVKDSVEENMLKIQNKKRELAAGAFGTKKPNADEMKQAKINEIRTLIDL",0.3278 log2,,1.079 log2,
"BAG2 (protein, UniProt O95816 2-211, looked up) BAG family molecular …: AQAKINAKANEGRFCRSSSMADRSSRLLESLDQLELRVEALREAATAVEQEKEILLEMIHSIQNSQDMRQISDGEREELNLTANRLMGRTLTVEVSVETIRNPQQQESLKHATRIIDEVVNKFLDDLGNAKSHLMSLYSACSSEVPHGPVDQKFQSIVIGCALEDQKKIKRRLETLLRNIENSDKAIKLLEHSKGAGSKTLQQNAESRFN",,2.1096,,-1.564
"ERC1 (protein, UniProt Q8IUD2 1-1116, looked up) ELKS/Rab6-interacting/CAST …: MYGSARSVGKVEPSSQSPGRSPRLPRSPRLGHRRTNSTGGSSGSSVGGGSGKTLSMENIQSLNAAYATSGPMYLSDHENVGSETPKSTMTLGRSGGRLPYGVRMTAMGSSPNIASSGVASDTIAFGEHHLPPVSMASTVPHSLRQARDNTIMDLQTQLKEVLRENDLLRKDVEVKESKLSSSMNSIKTFWSPELKKERALRKDEASKITIWKEQYRVVQEENQHMQMTIQALQDELRIQRDLNQLFQQDSSSRTGEPCVAELTEENFQRLHAEHERQAKELFLLRKTLEEMELRIETQKQTLNARDESIKKLLEMLQSKGLSAKATEEDHERTRRLAEAEMHVHHLESLLEQKEKENSMLREEMHRRFENAPDSAKTKALQTVIEMKDSKISSMERGLRDLEEEIQMLKSNGALSTEEREEEMKQMEVYRSHSKFMKNKVEQLKEELSSKEAQWEELKKKAAGLQAEIGQVKQELSRKDTELLALQTKLETLTNQFSDSKQHIEVLKESLTAKEQRAAILQTEVDALRLRLEEKETMLNKKTKQIQDMAEEKGTQAGEIHDLKDMLDVKERKVNVLQKKIENLQEQLRDKEKQMSSLKERVKSLQADTTNTDTALTTLEEALAEKERTIERLKEQRDRDEREKQEEIDNYKKDLKDLKEKVSLLQGDLSEKEASLLDLKEHASSLASSGLKKDSRLKTLEIALEQKKEECLKMESQLKKAHEAALEARASPEMSDRIQHLEREITRYKDESSKAQAEVDRLLEILKEVENEKNDKDKKIAELERQVKDQNKKVANLKHKEQVEKKKSAQMLEEARRREDNLNDSSQQLQDSLRKKDDRIEELEEALRESVQITAEREMVLAQEESARTNAEKQVEELLMAMEKVKQELESMKAKLSSTQQSLAEKETHLTNLRAERRKHLEEVLEMKQEALLAAISEKDANIALLELSSSKKKTQEEVAALKREKDRLVQQLKQQTQNRMKLMADNYEDDHFKSSHSNQTNHKPSPDQIIQPLLELDQNRSKLKLYIGHLTTLCHDRDPLILRGLTPPASYNLDDDQAAWENELQKMTRGQLQDELEKGERDNAELQEFANAILQQIADHCPDILEQVVNALEESS",0.3326 log2,,2.543 log2,

# Second part, led by results:
"Difference (log2), PP1 vs untreated [1, 2]","Difference (log2), PP1 vs untreated ([1]; log2 difference, pairwise comparison PP1 vs untreated, label-free quantification)",Molecule,"Difference (log2), untreated vs GFP (GFP-14-3-3β; [3])","Difference (log2), untreated vs GFP (GFP-14-3-3β; log2 difference, pairwise comparison untreated vs GFP, label-free quantification)"
0.3965 log2,,"NFX1 (protein, UniProt Q12986 1-1120, looked up) Transcriptional repressor …: MAEAPPVSGTFKFNTDAAEFIPQEKKNSGLNCGTQRRLDSNRIGRRNYSSPPPCHLSRQVPYDEISAVHQHSYHPSGSKPKSQQTSFQSSPCNKSPKSHGLQNQPWQKLRNEKHHIRVKKAQSLAEQTSDTAGLESSTRSESGTDLREHSPSESEKEVVGADPRGAKPKKATQFVYSYGRGPKVKGKLKCEWSNRTTPKPEDAGPESTKPVGVFHPDSSEASSRKGVLDGYGARRNEQRRYPQKRPPWEVEGARPRPGRNPPKQEGHRHTNAGHRNNMGPIPKDDLNERPAKSTCDSENLAVINKSSRRVDQEKCTVRRQDPQVVSPFSRGKQNHVLKNVETHTGSLIEQLTTEKYECMVCCELVRVTAPVWSCQSCYHVFHLNCIKKWARSPASQADGQSGWRCPACQNVSAHVPNTYTCFCGKVKNPEWSRNEIPHSCGEVCRKKQPGQDCPHSCNLLCHPGPCPPCPAFMTKTCECGRTRHTVRCGQAVSVHCSNPCENILNCGQHQCAELCHGGQCQPCQIILNQVCYCGSTSRDVLCGTDVGKSDGFGDFSCLKICGKDLKCGNHTCSQVCHPQPCQQCPRLPQLVRCCPCGQTPLSQLLELGSSSRKTCMDPVPSCGKVCGKPLPCGSLDFIHTCEKLCHEGDCGPCSRTSVISCRCSFRTKELPCTSLKSEDATFMCDKRCNKKRLCGRHKCNEICCVDKEHKCPLICGRKLRCGLHRCEEPCHRGNCQTCWQASFDELTCHCGASVIYPPVPCGTRPPECTQTCARVHECDHPVYHSCHSEEKCPPCTFLTQKWCMGKHEFRSNIPCHLVDISCGLPCSATLPCGMHKCQRLCHKGECLVDEPCKQPCTTPRADCGHPCMAPCHTSSPCPVTACKAKVELQCECGRRKEMVICSEASSTYQRIAAISMASKITDMQLGGSVEISKLITKKEVHQARLECDEECSALERKKRLAEAFHISEDSDPFNIRSSGSKFSDSLKEDARKDLKFVSDVEKEMETLVEAVNKGKNSKKSHSFPPMNRDHRRIIHDLAQVYGLESVSYDSEPKRNVVVTAIRGKSVCPPTTLTGVLEREMQARPPPPIPHHRHQSDKNPGSSNLQKITKEPIIDYFDVQD",0.9482 log2,
0.3509 log2,,"WBP11 (protein, UniProt Q9Y2W2 1-641, looked up) WW domain-binding protein 11: MGRRSTSSTKSGKFMNPTDQARKEARKRELKKNKKQRMMVRAAVLKMKDPKQIIRDMEKLDEMEFNPVQQPQLNEKVLKDKRKKLRETFERILRLYEKENPDIYKELRKLEVEYEQKRAQLSQYFDAVKNAQHVEVESIPLPDMPHAPSNILIQDIPLPGAQPPSILKKTSAYGPPTRAVSILPLLGHGVPRLPPGRKPPGPPPGPPPPQVVQMYGRKVGFALDLPPRRRDEDMLYSPELAQRGHDDDVSSTSEDDGYPEDMDQDKHDDSTDDSDTDKSDGESDGDEFVHRDNGERDNNEEKKSGLSVRFADMPGKSRKKKKNMKELTPLQAMMLRMAGQEIPEEGREVEEFSEDDDEDDSDDSEAEKQSQKQHKEESHSDGTSTASSQQQAPPQSVPPSQIQAPPMPGPPPLGPPPAPPLRPPGPPTGLPPGPPPGAPPFLRPPGMPGLRGPLPRLLPPGPPPGRPPGPPPGPPPGLPPGPPPRGPPPRLPPPAPPGIPPPRPGMMRPPLVPPLGPAPPGLFPPAPLPNPGVLSAPPNLIQRPKADDTSAATIEKKATATISAKPQITNPKAEITRFVPTALRVRRENKGATAAPQRKSEDDSAVPLAKAAPKSGPSVPVSVQTKDDVYEAFMKEMEGLL",1.895 log2,
0.3437 log2,,"SRP14 (protein, UniProt P37108 2-136, looked up) Signal recognition particle …: VLLESEQFLTELTRLFQKCRTSGSVYITLKKYDGRTKPIPKKGTVEGFEPADNKCLLRATDGKKKISTVVSSKEVNKFQMAYSNLLRANMDGLKKRDKKNKTKKTKAAAAAAAAAPAAAATAPTTAATTAATAAQ",1.473 log2,
